The values that follow come from patent publication US8632989B1, “Mutant insulin degrading enzyme and methods of use” (University of Kentucky Research Foundation, priority 2011, dated 2014).

The test system of series [1] is Abz-GGFLRKHGQ-EDDnp. Kind of series: Enzyme activity assay, kinetics of wild type rIDE and distal site mutants with fluorogenic substrate. Particulars: rat IDE, Abz-GGFLRKHGQ-EDDnp as substrate; for Vmax: 50 mM Tris-HCl, pH 7.4. Type of series: biochemical. On the procedure:
(§1) FIG. 17. Effects of distal site mutations. (A) Comparison of the kinetics of wild type IDE with the distal site mutants. Activity was measured with varying amounts of Abz-[…]-EDDnp (SEQ ID NO:3) substrate as indicated. Either hyperbolic (Michaelis-Menten equation) or sigmoidal curves (Hill equation) were fit to the data. (B) Effect of bradykinin on the activity of wild type IDE and the distal site mutants. (C) Activation of wild type IDE and distal site mutants by ATP. Relative activity is the fold activation above the level of the wild type enzyme alone.
(§2) The activity of IDE was measured by following the increase in fluorescence upon hydrolysis at the L-R bond of the fluorogenic peptide Abz-[…]-EDDnp (SEQ ID NO:3) on a SpectraMax Gemini XS fluorescence plate reader using an excitation wavelength of 318 nm and emission wavelength of 419 nm. Reactions were carried out in 200 μl volumes containing 50 mM Tris-HCl, pH 7.4, 1.92 μg of wild type rIDE, 4.6 μg of rIDE-V360S, 4.3 μg rIDE-I374S, or 1.63 μg of rIDE-Y609F. For measurements of activation by bradykinin, IDE activity was determined with 10 μM Abz-[…]-EDDnp (SEQ ID NO:3) as substrate in 50 mM Tris-HCl buffer, pH 7.4. The amount of protein was 0.5 μg for wild type rIDE and 5 μg for each of the IDE distal-site mutants. Data were analyzed using Softmax 4.0 (Molecular Devices) and kinetic parameters calculated with Prism (Graphpad Software). […] Under these assay conditions, both wild type and mutant rIDE are almost completely dimeric.

Series [2] is described as follows: Fluorescence measurements of TNP-ATP binding, wild type rIDE and distal site mutants. The following applies: hyperbolic one site binding fit, 20 °C. On the procedure:
The fluorescence increase on binding of (2,4,6-trinitrophenyl)ATP (TNP-ATP) is plotted for the indicated IDE constructs as a function of ligand concentration. Data were fit to a hyperbolic one site binding mechanism.
Fluorescence emission spectra of 10 μM TNP-ATP in […] Tris-HCl, pH7.4, was measured in the presence of 1.5 μM of each wild type IDE and the indicated IDE distal mutants. Fluorescence spectra were recorded with a λexc=403 nm on a Perkin-Elmer LS55 Luminescence Spectrometer.
Fluorescence measurements of TNP-ATP binding were performed on a Perkin-Elmer LS55 Luminescence Spectrometer. Titrations were monitored at an excitation wavelength of 403 nm and emission wavelength of 547 nm. The temperature of the sample was maintained at 20±0.1° C. by circulating thermostatically controlled water through the cuvette holder. Assays were conducted in 200 μL reaction mixtures containing 50 mM Tris-HCl, pH, 7.4, 10 μM Abz-[…]-EDDnp (SEQ ID NO:3) as substrate, and 0.5 μg wild type rIDE, 2.3 μg rIDE-V3605, 2.0 μg rIDE-I3745 or 1.62 μg rIDEY609F and the indicated concentration of ATP. The fluorescence of TNP-ATP was subtracted from the total fluorescence of enzyme+TNP-ATP to yield specific fluorescence enhancement (ΔF).

The subject of series [3] is Abz-GGFLRKHGQ-EDDnp. Nature of the series: Activation by ATP, wild type rIDE and distal site mutants. The following applies: 10 μM Abz-GGFLRKHGQ-EDDnp as substrate. Type of series: biochemical. As to the method:
as §1, §2
Fluorescence measurements of TNP-ATP binding were performed on a Perkin-Elmer LS55 Luminescence Spectrometer. Titrations were monitored at an excitation wavelength of 403 nm and emission wavelength of 547 nm. The temperature of the sample was maintained at 20±0.1° C. by circulating thermostatically controlled water through the cuvette holder. […] The fluorescence of TNP-ATP was subtracted from the total fluorescence of enzyme+TNP-ATP to yield specific fluorescence enhancement (ΔF).

B1: Y609F: Rat IDE distal site mutant Y609F (protein, UniProt P35559 1-1019, looked up, variant Y609F)
Insulin-degrading enzyme: MRNGLVWLLHPALPSTLHSILGARPPPVKRLCGFPKQIYSTMNNPAIQRIEDHIVKSPEDKREYRGLELANGIKVLLISDPTTDKSSAALDVHIGSLSDPPNIPGLSHFCEHMLFLGTKKYPKENEYSQFLSEHAGSSNAFTSGEHTNYYFDVSHEHLEGALDRFAQFFLCPLFDASCKDREVNAVDSEHEKNVMNDAWRLFQLEKATGNPKHPFSKFGTGNKYTLETRPNQEGIDVREELLKFHSTYYSSNLMAICVLGRESLDDLTNLVVKLFSEVENKNVPLPEFPEHPFQEEHLKQLYKIVPIKDIRNLYVTFPIPDLQQYYKSNPGHYLGHLIGHEGPGSLLSELKSKGWVNTLVGGQKEGARGFMFFIINVDLTEEGLLHVEDIILHMFQYIQKLRAEGPQEWVFQECKDLNAVAFRFKDKERPRGYTSKIAGKLHYYPLNGVLTAEYLLEEFRPDLIDMVLDKLRPENVRVAIVSKSFEGKTDRTEQWYGTQYKQEAIPEDVIQKWQNADLNGKFKLPTKNEFIPTNFEILALEKDATPYPALIKDTAMSKLWFKQDDKFFLPKACLNFEFFSPFAYVDPLHCNMAYLYLELLKDSLNEYAFAAELAGLSYDLQNTIYGMYLSVKGYNDKQPILLKKITEKMATFEIDKKRFEIIKEAYMRSLNNFRAEQPHQHAMYYLRLLMTEVAWTKDELKEALDDVTLPRLKAFIPQLLSRLHIEALLHGNITKQAALGVMQMVEDTLIEHAHTKPLLPSQLVRYREVQLPDRGWFVYQRRNEVHNNCGIEIYYQTDMQSTSENMFLELFCQIISEPCFNTLRTKEQLGYIVFSGPRRANGIQGLRFIIQSEKPPHYLESRVEAFLITMEKAIEDMTEEAFQKHIQALAIRRLDKPKKLSAECAKYWGEIISQQYNYDRDNIEVAYLKTLSKDDIIKFYKEMLAVDAPRRHKVSVHVLAREMDSCPVVGEFPSQNDINLSEAPPLPQPEVIHNMTEFKRGLPLFPLVKPHINFMAAKL
Turning to B1, in the series on Abz-GGFLRKHGQ-EDDnp [1], the Hill coefficient is 1.04, the Km worked out at 6.86 ± 1.18 µM and the Vmax was found to be 2.6 ± 0.56 nmol/min/mg. The same molecule gave a Hill coefficient in the series on Abz-GGFLRKHGQ-EDDnp [1] (listed as Tyr609Phe) of 1.04 ± 0.14. The molecule further returned a Kd in series [2] of 2000 ± 300 nM. Besides, the ATP activation result in the series with Abz-GGFLRKHGQ-EDDnp [3] is reported as “not significant”.

B2: I374S: Rat IDE distal site mutant I374S (protein, UniProt P35559 1-1019, looked up, variant I374S)
Insulin-degrading enzyme: MRNGLVWLLHPALPSTLHSILGARPPPVKRLCGFPKQIYSTMNNPAIQRIEDHIVKSPEDKREYRGLELANGIKVLLISDPTTDKSSAALDVHIGSLSDPPNIPGLSHFCEHMLFLGTKKYPKENEYSQFLSEHAGSSNAFTSGEHTNYYFDVSHEHLEGALDRFAQFFLCPLFDASCKDREVNAVDSEHEKNVMNDAWRLFQLEKATGNPKHPFSKFGTGNKYTLETRPNQEGIDVREELLKFHSTYYSSNLMAICVLGRESLDDLTNLVVKLFSEVENKNVPLPEFPEHPFQEEHLKQLYKIVPIKDIRNLYVTFPIPDLQQYYKSNPGHYLGHLIGHEGPGSLLSELKSKGWVNTLVGGQKEGARGFMFFSINVDLTEEGLLHVEDIILHMFQYIQKLRAEGPQEWVFQECKDLNAVAFRFKDKERPRGYTSKIAGKLHYYPLNGVLTAEYLLEEFRPDLIDMVLDKLRPENVRVAIVSKSFEGKTDRTEQWYGTQYKQEAIPEDVIQKWQNADLNGKFKLPTKNEFIPTNFEILALEKDATPYPALIKDTAMSKLWFKQDDKFFLPKACLNFEFFSPFAYVDPLHCNMAYLYLELLKDSLNEYAYAAELAGLSYDLQNTIYGMYLSVKGYNDKQPILLKKITEKMATFEIDKKRFEIIKEAYMRSLNNFRAEQPHQHAMYYLRLLMTEVAWTKDELKEALDDVTLPRLKAFIPQLLSRLHIEALLHGNITKQAALGVMQMVEDTLIEHAHTKPLLPSQLVRYREVQLPDRGWFVYQRRNEVHNNCGIEIYYQTDMQSTSENMFLELFCQIISEPCFNTLRTKEQLGYIVFSGPRRANGIQGLRFIIQSEKPPHYLESRVEAFLITMEKAIEDMTEEAFQKHIQALAIRRLDKPKKLSAECAKYWGEIISQQYNYDRDNIEVAYLKTLSKDDIIKFYKEMLAVDAPRRHKVSVHVLAREMDSCPVVGEFPSQNDINLSEAPPLPQPEVIHNMTEFKRGLPLFPLVKPHINFMAAKL
With B2, in the series with Abz-GGFLRKHGQ-EDDnp [1], the Hill coefficient worked out at 1.12, the Km came out at 8.5 ± 1.74 µM and the Vmax was 3.45 ± 0.22 nmol/min/mg. The molecule further showed a Hill coefficient in the series with Abz-GGFLRKHGQ-EDDnp [1] (listed as Ile374Ser) of 1.12 ± 0.2. Further, in series [2], binding was characterised by a dissociation constant (Kd) of 2100 ± 500 nM. Moreover, the ATP activation result in the series with Abz-GGFLRKHGQ-EDDnp [3] is “not significant”.

B3: V360S: Rat IDE distal site mutant V360S (protein, UniProt P35559 1-1019, looked up, variant V360S)
Insulin-degrading enzyme: MRNGLVWLLHPALPSTLHSILGARPPPVKRLCGFPKQIYSTMNNPAIQRIEDHIVKSPEDKREYRGLELANGIKVLLISDPTTDKSSAALDVHIGSLSDPPNIPGLSHFCEHMLFLGTKKYPKENEYSQFLSEHAGSSNAFTSGEHTNYYFDVSHEHLEGALDRFAQFFLCPLFDASCKDREVNAVDSEHEKNVMNDAWRLFQLEKATGNPKHPFSKFGTGNKYTLETRPNQEGIDVREELLKFHSTYYSSNLMAICVLGRESLDDLTNLVVKLFSEVENKNVPLPEFPEHPFQEEHLKQLYKIVPIKDIRNLYVTFPIPDLQQYYKSNPGHYLGHLIGHEGPGSLLSELKSKGWVNTLSGGQKEGARGFMFFIINVDLTEEGLLHVEDIILHMFQYIQKLRAEGPQEWVFQECKDLNAVAFRFKDKERPRGYTSKIAGKLHYYPLNGVLTAEYLLEEFRPDLIDMVLDKLRPENVRVAIVSKSFEGKTDRTEQWYGTQYKQEAIPEDVIQKWQNADLNGKFKLPTKNEFIPTNFEILALEKDATPYPALIKDTAMSKLWFKQDDKFFLPKACLNFEFFSPFAYVDPLHCNMAYLYLELLKDSLNEYAYAAELAGLSYDLQNTIYGMYLSVKGYNDKQPILLKKITEKMATFEIDKKRFEIIKEAYMRSLNNFRAEQPHQHAMYYLRLLMTEVAWTKDELKEALDDVTLPRLKAFIPQLLSRLHIEALLHGNITKQAALGVMQMVEDTLIEHAHTKPLLPSQLVRYREVQLPDRGWFVYQRRNEVHNNCGIEIYYQTDMQSTSENMFLELFCQIISEPCFNTLRTKEQLGYIVFSGPRRANGIQGLRFIIQSEKPPHYLESRVEAFLITMEKAIEDMTEEAFQKHIQALAIRRLDKPKKLSAECAKYWGEIISQQYNYDRDNIEVAYLKTLSKDDIIKFYKEMLAVDAPRRHKVSVHVLAREMDSCPVVGEFPSQNDINLSEAPPLPQPEVIHNMTEFKRGLPLFPLVKPHINFMAAKL
Turning to B3, in the series with Abz-GGFLRKHGQ-EDDnp [1], the Hill coefficient came to 1.07, the Km stood at 8.61 ± 0.81 µM and the Vmax is 2.01 ± 0.08 nmol/min/mg. Also, the Hill coefficient in the series on Abz-GGFLRKHGQ-EDDnp [1] (listed as Val360Ser) is recorded as 1.07 ± 0.30. Besides, the Kd in series [2] came to 3700 ± 800 nM. The same molecule displayed an ATP activation in the series with Abz-GGFLRKHGQ-EDDnp [3] of 8 fold.

By Hill coefficient is commonly meant a measure of the steepness of the concentration-response curve. Usually Km stands for the substrate concentration at which the rate is half of its maximum. By Vmax is commonly meant the top rate of the reaction or transport when substrate is in excess. The term Kd denotes a measure of binding affinity in units of concentration. Lower therefore signals a tighter complex.
